{"source": "the domain aggregation screens of Martell et al. (2025)", "assay": "soluble fraction after stress (log2 fold change); higher = more stays soluble; pooled small domains, quantitative proteomics", "conditions": "stress: 50 degC", "method_in_brief": "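The measure of aggregation propensity here is the base-two logarithm of the fold change in the soluble amount of each protein after stress. A higher value means more of that protein stays in solution. Stress was applied at 50°C to pooled libraries of small protein domains, read out by high-throughput quantitative proteomics.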", "data": [{"sequence": "HMAAEGARNNSLFNSLRERALEVSSHNELEQIAFKMNETNIPPLRASEVISVVNSVWKNRISNQIIP", "values": [{"measurement": "soluble fraction (log2)", "value": 0.155}]}, {"sequence": "HMAAFGDLLSELRRDMNMTQDELAKVLFVSPGTISNYENNIHFPDVPKLKQIAQYFGVTTDYLLG", "values": [{"measurement": "soluble fraction (log2)", "value": -0.405}]}, {"sequence": "HMAAINTYQVRKIYAIAGALGMKSRDGDDALHDLVFGMTGKQHISGLTSAEAYDVIAELEKKQ", "values": [{"measurement": "soluble fraction (log2)", "value": -1.66}]}, {"sequence": "HMAALKVAVLTVSDTRTQETDTSGAFLEGALREAGHEIADRQIVIDDVYQLRAIVSQWIADPEVEVILT", "values": [{"measurement": "soluble fraction (log2)", "value": -0.217}]}, {"sequence": "HMAALTADEAKQIALKHAGVAESDVQRLKVEQDRDDGRLLYEVEWDVGRTEYSYEIDANTGDILNYEKDV", "values": [{"measurement": "soluble fraction (log2)", "value": 0.254}]}, {"sequence": "HMAANKIDEDRNTELLQVIQNKFPDADAATKKSVKEIMKEHDIPNFKNADDIPTAVLEQIVKVLNQ", "values": [{"measurement": "soluble fraction (log2)", "value": 0.323}]}, {"sequence": "HMAAPLTDRETEVLTLLARGLINKQIAEELHIGLTTVITHRRNIMEKLRVRSLAELILRAVAAGYVDAGR", "values": [{"measurement": "soluble fraction (log2)", "value": -1.77}]}, {"sequence": "HMAARKDLIAGEDAEGRLDAWLAAALDGEFSRNRVKALIEQGAVAINDVAVTEPKRKIRPGDRLSIVLPEP", "values": [{"measurement": "soluble fraction (log2)", "value": 0.339}]}, {"sequence": "HMAARLMRALIPYAQGGLLAKLHEDGQVLSEEYTGEGIEVKALADEQLFGRLTVQLGEQAVSWQD", "values": [{"measurement": "soluble fraction (log2)", "value": 0.16}]}, {"sequence": "HMAASTPGTVTGSVVNVRPDPSTNNDRIGVIYQGTKVEILAQVGEWYNIQFGPVSGWVHKDYISTGA", "values": [{"measurement": "soluble fraction (log2)", "value": 0.00638}]}, {"sequence": "HMAATISPEIQAEAEKAAALGVESIKNFMASLKEKNPEQHALFSDSEKRRLYAIARKADLNTTQQG", "values": [{"measurement": "soluble fraction (log2)", "value": -0.103}]}, {"sequence": "HMAAVPQPQRSETIVYIGGRKFYVHTVQAGETLYSIARLYGVSEQTLVANNPTMADVVKADQNVRIPVPA", "values": [{"measurement": "soluble fraction (log2)", "value": -0.272}]}, {"sequence": "HMAAYRLIPLGNSNKDFETYQEAIQYMRDKLDESSKAFEEGKQNWVYSGRVYGVPWSDGRTTFTVDLVPKV", "values": [{"measurement": "soluble fraction (log2)", "value": 0.164}]}, {"sequence": "HMADASVTAYFKIAEDRLQGRLPDTFSEASLKARYQLTPAQLTAVLTRIAQEGWAERKPGYGWAFSSML", "values": [{"measurement": "soluble fraction (log2)", "value": -1.4}]}, {"sequence": "HMADEIMYPVQVNGKVRAEIFVAADQSKNKELVLEMAKSEERVQKYLEEGNLIKEIFVPGRIVNLVI", "values": [{"measurement": "soluble fraction (log2)", "value": 0.0273}]}, {"sequence": "HMADEIQIGLQKAIQSLPEKQKLVFSMRYYDEIPYDEMSKILDMSVGTLKTNYHYAKQKIEDFLQNH", "values": [{"measurement": "soluble fraction (log2)", "value": -1.05}]}, {"sequence": "HMADFIGMNATVTERIFPQGFGRISFVYEGNSISEPARSEDGKEIPTGTSVVVLEVRDKVYIVQPL", "values": [{"measurement": "soluble fraction (log2)", "value": -0.221}]}, {"sequence": "HMADGDIIPEGQRDATLASLAGSMRARGMTEAEILAALQVTNETRVRPPMALADLERIARSIGRYEPGK", "values": [{"measurement": "soluble fraction (log2)", "value": 0.0818}]}, {"sequence": "HMADKGTITNQQEKILKALILFPEGASIEEIQKAADLGIDKRQFQRRLNTLIESGQINRTGKSRGTKYHTI", "values": [{"measurement": "soluble fraction (log2)", "value": 0.0555}]}, {"sequence": "HMADLKVGFVHRAGSVLERELDDVLEALEMYRSALAIDPSHKPSLDALTRISQLADYREQAAEILEPLPR", "values": [{"measurement": "soluble fraction (log2)", "value": -0.576}]}, {"sequence": "HMADLNFHQQIRSLPPEQQEILLLRFGQELTLRQIAQVTGVPLRTVQSRLRAALKKLKSQLEKEE", "values": [{"measurement": "soluble fraction (log2)", "value": -0.39}]}, {"sequence": "HMADLPQATALADVKGDVQMQGIQFGYDPEKIIIHDLNLHARPGSLVAIVGPTGAGKTTIINLLMRFYD", "values": [{"measurement": "soluble fraction (log2)", "value": -0.313}]}, {"sequence": "HMADLVYLRKRLQDAIAQLPEDMRTAYTLFQIARRSIREIAELTGASESLVKVRIHRAKGKLQELLEDLR", "values": [{"measurement": "soluble fraction (log2)", "value": -1.87}]}, {"sequence": "HMADPAVLIAELFRAMPEKRFSVKNLISATGAETREQKDYVREVVHSLSREGMIEQVAEGKYRLSASE", "values": [{"measurement": "soluble fraction (log2)", "value": 0.171}]}, {"sequence": "HMADQVLVMTRAVGQGDIVRNADIGLTSVAVDRAVATIPASQLDKIVGRHALVDLSPGQLLGSHSVGE", "values": [{"measurement": "soluble fraction (log2)", "value": 0.035}]}, {"sequence": "HMADRDKYIIMGQQLLRAAFEHFGKKATDKALENAANKLRISDVPELYARLGSAELQPRDVINVIFPD", "values": [{"measurement": "soluble fraction (log2)", "value": -0.0534}]}, {"sequence": "HMADRLITLSEVASLLRVSRHTVQAWISPSSPNHRPEFAIMARHAGRRTVFIEAEVTAWLDQRRG", "values": [{"measurement": "soluble fraction (log2)", "value": -1.95}]}, {"sequence": "HMADVSPEAQHKMVEAFAQFGVTKEHIEQRIQRRLDAIQPAQMVTLKRIFASLRDGMSTPAEWFE", "values": [{"measurement": "soluble fraction (log2)", "value": -0.227}]}, {"sequence": "HMADYSGYLGKKGKVIAPLRPAGTALIDGERVDVVSFGDYIDKDSEIEVVKIEGSKLLVKKY", "values": [{"measurement": "soluble fraction (log2)", "value": 0.141}]}, {"sequence": "HMAEAIVMSTAAPVKSSPDPQSKDIFVLHEGTKVAVGDSLGDWREIRIADGNKGWVLVSAIEMI", "values": [{"measurement": "soluble fraction (log2)", "value": 0.0979}]}, {"sequence": "HMAEDGNMTFEEYAKRWLARQVRYAPSTLESYRRMLGRVYPFIGAIPINRLRPIALENLLAELRKRT", "values": [{"measurement": "soluble fraction (log2)", "value": -0.48}]}, {"sequence": "HMAEEFESMTEARRLELARLVDSRGFVRVTDAAEELGVSDVTIRGDLSELERRGLLTRVHGGAMPVT", "values": [{"measurement": "soluble fraction (log2)", "value": 0.0215}]}, {"sequence": "HMAEKEYYYATDALNLRQGPGMEHTVKGEVVLGERVALLGLEGKWAKIQNAQGTTGYVFSAYLAPS", "values": [{"measurement": "soluble fraction (log2)", "value": 0.0931}]}, {"sequence": "HMAEMLENQLKHAKSKQEANEYIAAAIGGVSDDDPDKEYLVAAYNEISKEFHHSSAYHRLPDT", "values": [{"measurement": "soluble fraction (log2)", "value": -0.0511}]}, {"sequence": "HMAEMRYLDQIYEVNVPLPDLSLEDGDLLARWAVNFHQRYEELFSYRQSDQEIRLVTLRVTVLGELP", "values": [{"measurement": "soluble fraction (log2)", "value": -0.653}]}, {"sequence": "HMAENMNAALRVSSLINQIGTVNAKAKDRIESARKAYDALSEAQKAYVANLTTLETAETSLSKL", "values": [{"measurement": "soluble fraction (log2)", "value": 0.179}]}, {"sequence": "HMAENTIPSVIGKTLSDATFLLESYGYERGGVSEEYSEMPKGVVIRQSPQAGSSADPGTKVNLVVSLGEEI", "values": [{"measurement": "soluble fraction (log2)", "value": 0.174}]}, {"sequence": "HMAENTKKWDETGRRYRSYIKLEKRLSENTVESYMRDYMQFAHFILRQWDVAPHKVEPQMVERYMAWLYER", "values": [{"measurement": "soluble fraction (log2)", "value": -0.00858}]}, {"sequence": "HMAEPIAAGKYTVSTSGSVLNMRVSPDADSQVLEKIPNGTIVEVTKSVLGWAYVTYNSAQGWVSSAYLV", "values": [{"measurement": "soluble fraction (log2)", "value": 0.15}]}, {"sequence": "HMAEPLMTQIVEIEYADAEGLRENLEQFLTRLDEKTLLGSVLVDRHTNSLIIQAVRSDLERMLPLIETLDR", "values": [{"measurement": "soluble fraction (log2)", "value": -0.731}]}, {"sequence": "HMAEPLYKQVKNKIIQNLTSDEWKPGSVIPSETKLAETYGVGVSTIRMAIGELVAARILIRRQGKGTFVSS", "values": [{"measurement": "soluble fraction (log2)", "value": -1.85}]}, {"sequence": "HMAEQDILQSVYPHIGGQDNVSRTISRNGTLYLMLKDASAVDLKAVKQVPGIADAALERGRLTLQLEE", "values": [{"measurement": "soluble fraction (log2)", "value": 0.0398}]}, {"sequence": "HMAEQLGNSRTANMVMLGAMIERTGVISIDSAMEALKATFGPKKEHLLPINRQAMEAGAAAARAV", "values": [{"measurement": "soluble fraction (log2)", "value": 0.303}]}, {"sequence": "HMAERVWASLLEIKNAVAIEDAKTLEDVDNSEKIAEERIAALNDDAKHPLAIAFIGKLRQDIAEKKIELA", "values": [{"measurement": "soluble fraction (log2)", "value": 0.379}]}, {"sequence": "HMAESSPYTVRPGDTLWKILAQTQNARYNDFPYLYRKFRELNPNITDLNHIVSGQKIIVPHIPG", "values": [{"measurement": "soluble fraction (log2)", "value": 0.0168}]}, {"sequence": "HMAESTRSRILNAAIEMMETGGESSVRLSAIAEALGIKEPSIYHHFTNRTELVNAAYIEWYW", "values": [{"measurement": "soluble fraction (log2)", "value": -0.0152}]}, {"sequence": "HMAEVDREEALRIALAHAAVARRDVRNLKIERGEENGVPVYKVEFETAFGDFDVAVSRRSGDVVDAD", "values": [{"measurement": "soluble fraction (log2)", "value": 0.0689}]}, {"sequence": "HMAEVIYGAGKTPAQMLGILRTMQAHGQKTVLITRLREEAAEEIGREIPLQYDKTAGVGIVGTLPQPDG", "values": [{"measurement": "soluble fraction (log2)", "value": -0.0493}]}, {"sequence": "HMAEVPSLIGKSLDAAKQAIIDAGFKVGSVSYDNSDSYGKGQVMWQQYEPSTKVKKGSSISIKVSKGS", "values": [{"measurement": "soluble fraction (log2)", "value": 0.00591}]}, {"sequence": "HMAEVRTLLVPIELAGMRFDQVLAELLPEFSRSRLAAWIKSGDALLDGHDAKPKGVVRGGEQIEIRLA", "values": [{"measurement": "soluble fraction (log2)", "value": 0.0321}]}, {"sequence": "HMAFAVWVKLVAIGPNYAQLEIEQGTQRNVRTLRPGDDAPEGVRLLSLTPTHAEVQANGIARKLALGQGMA", "values": [{"measurement": "soluble fraction (log2)", "value": -0.381}]}, {"sequence": "HMAFDESLVRSIQELLSELGYSPGKIDGLLGAKTVAAIKAFELEINKDQLTGEPSEELLIALQLAIRSSKM", "values": [{"measurement": "soluble fraction (log2)", "value": -1.13}]}, {"sequence": "HMAFDGIVLKNITNALKELINGKINKIQQSSKDNLTLSIYNQKSYNLYIDISANNYRVNLTTHSE", "values": [{"measurement": "soluble fraction (log2)", "value": 0.103}]}, {"sequence": "HMAFDYETYQLTSREFSIIELVADGRSNREIAEALYLGEGTVRNYLSSILEKLELRDRTQLAVFFYQHL", "values": [{"measurement": "soluble fraction (log2)", "value": -2.3}]}, {"sequence": "HMAFIEIMTEGDADGRGFQYPIPTYSITRDFDWSETENNKLLFEMTAKYGTPYFSNYINSDMEPSDV", "values": [{"measurement": "soluble fraction (log2)", "value": -0.535}]}]}
